Measured values published in US12545899B2, “Luciferase enzymes for use with thermostable luciferins in bioluminescent assays” (Promega Corporation, priority 2018, dated 2026).
Positions count from the first letter of the chain named. Numbers in names are those of the source.

B1: MK0154: SEQ ID NO: 119; H244W+S193A+N228D+L305F+S306P+I109V+C38R+F55I+Y108F+A316W+Y339M+T342S+V348I+C257R+T284A+T289S+S313T+K353R+D435G+L437R+W510R (protein)
chain: MADKNILYGPEPFYPLEDGTAGEQMFDALSRYAAIPGRIALTNAHTKENVLYEEILKLSCRLAESFKKYGLKQNDTIAVCSENSLQFFLPVIASLYLGIIVAPVNDKFVERELIHSLGIVKPRIVFCSKNTFQKVLNVKSKLKSIETIIILDLNEDLGGYQCLNNFISQNSDSNLDVKKFKPYSFNRDDQVAAIMFSSGTTGLPKGVMLTHKNIVARFSIAKDPTFGDAINPTSAILTVIPFHWGFGMMTTLGYFTCGFRVVLMHTFEEKLFLQSLQDYKVESALLVPSLMAFLAKSALVEKYDFPHLKEIATGGWPLSKEIGEMVKKRFKLNFVRQGMGLSETTSAILITPKGDAKPGSTGKIVPLHAVKVVDPTTGKILGPNEPGELYFKGPMIMKGYYNNEEATKAIIDNDGWLRSGDIAYYDNDGHFYIVDRLKSLIKYKGYQVAPAEIEGILLQHPYIVDAGVTGIPDEAAGELPAAGVVVQTGKYLNEQIVQDYVASQVSTAKRLRGGVKFLDEIPKGSTGKIDRKVLRQMLEKHTNGHHHHHHHH
B2: MK0157: SEQ ID NO: 122; H244W+S193A+N228D+L305F+S306P+I109V+C38R+F55I+Y108F+A316W+Y339M+T342S+V348I+T284A+T289S+K353R+D435G+L437R (protein)
chain: B1 chain with C257R, S289T, K353R, D435G, R510W
B3: MK0158: SEQ ID NO: 123; H244W+S193A+N228D+L305F+S306P+I109V+C38R+F55I+Y108F+A316W+Y339M+T342S+V348I+C257R+T284A+S313T+K353R+D435G (protein)
chain: B1 chain with C257R, A284T, D435G, L437R
B4: MK0155: SEQ ID NO: 120; H244W+S193A+N228D+L305F+S306P+I109V+C38R+F55I+Y108F+A316W+Y339M+T342S+V348I+T284A+S313T+K353R+L437R+W510R (protein)
chain: B1 chain with S289T, K353R, L437R
B5: MK0159: SEQ ID NO: 124; H244W+S193A+N228D+L305F+S306P+I109V+C38R+F55I+Y108F+A316W+Y339M+T342S+V348I+T284A+T289S+S313T+W510R (protein)
chain: B1 chain with C257R, K353R, D435G, L437R
B6: MK0156: SEQ ID NO: 121; H244W+S193A+N228D+L305F+S306P+I109V+C38R+F55I+Y108F+A316W+Y339M+T342S+V348I+C257R+T289S+S313T+K353R (protein)
chain: B1 chain with T313S, K353R, D435G, L437R, R510W

How the values were obtained:
Format in all cases: biochemical
[1] = Luminescence at 1 mM CS0280 (Table 11); conditions: 1 mM substrate, 1 mM ATP
Description: (§1) Tables 10 and 11 include representative results of kinetic analysis of the thermostable variants with D/L luciferin, CS0333, and CS0280. […] MK0135 and MK0137 have amino acid substitutions that improve thermostability relative to MK0133 and MK0134, respectively, while retaining activity on the luciferin analogs CS0333 and CS0280.

[2] = Kinetic analysis of thermostable variants with CS0333 (Tables 13, 14); conditions: 2 mM ATP
Description: (§2) Tables 13 and 14 include representative results of kinetic analysis of the thermostable variants with D/L luciferin, CS0333, and CS0280. The panel of enzyme variants highlight amino acid substitutions that further improve upon MK0137 in maximum luminescence (Vmax) or Km in different buffers with the different substrates tested (D/L-luciferin, CS0333, and CS0280). In particular, enzyme variants MK0151 and MK153 show improvements relative to MK0137 across multiple buffers with multiple substrates.

[3] = Kinetic analysis of thermostable variants with CS0280 (Tables 13, 14); conditions: 2 mM ATP
Description: as §2

[4] = Luminescence at 1 mM CS0333 (Table 11); conditions: 1 mM substrate, 1 mM ATP
Description: as §1

[5] = Kinetic analysis of thermostable variants with D/L-luciferin (Tables 13, 14); conditions: 2 mM ATP
Description: as §2

[6] = Luminescence at 1 mM D/L-luciferin (Table 11); conditions: 1 mM substrate, 1 mM ATP
Description: as §1

Molecule	Vmax (RLU) CS0280 BrightGlo Buffer [1]	Vmax (RLU) CS0280 Detection Reagent Buffer [1]	Km ([2]; BrightGlo Buffer) [µM]	Vmax (RLU) ([2]; BrightGlo Buffer)	Km ([2]; Detection Reagent Buffer) [µM]	Vmax (RLU) ([2]; Detection Reagent Buffer)	Km ([3]; BrightGlo Buffer) [µM]	Vmax (RLU) ([3]; BrightGlo Buffer)	Km ([3]; Detection Reagent Buffer) [µM]	Vmax (RLU) ([3]; Detection Reagent Buffer)	Vmax (RLU) CS0333 BrightGlo Buffer [4]	Vmax (RLU) CS0333 Detection Reagent Buffer [4]	Km ([5]; BrightGlo Buffer) [µM]	Vmax (RLU) ([5]; BrightGlo Buffer)	Km ([5]; Detection Reagent Buffer) [µM]	Vmax (RLU) ([5]; Detection Reagent Buffer)	Vmax (RLU) D/L-luciferin BrightGlo Buffer [6]	Vmax (RLU) D/L-luciferin Detection Reagent Buffer [6]
B1	809,566 RLU	22,493 RLU	10.6	1,706,369 RLU	230	409,320 RLU	41.7	449,576 RLU	954	24,533 RLU	2,374,950 RLU	854,223 RLU	0.108	2,997,269 RLU	0.356	342,134 RLU	2,583,340 RLU	
B2	3,598,730 RLU	159,336 RLU	4.51	2,835,770 RLU	18.7	515,775 RLU	4.49	951,258 RLU	631	87,011 RLU	4,827,260 RLU	3,810,820 RLU	0.1	590,903 RLU	0.27	32,485 RLU	573,187 RLU	75,012 RLU
B3	1,523,240 RLU	41,712 RLU	14.6	1,546,728 RLU	20.8	524,381 RLU	2.94	426,927 RLU	568	39,068 RLU	4,043,790 RLU	1,508,370 RLU	0.109	2,509,334 RLU	0.451	365,701 RLU	3,261,120 RLU	1,086,510 RLU
B4	4,644,970 RLU	62,606 RLU	7.88	1,487,388 RLU	126	301,956 RLU	8.07	570,972 RLU	798	32,480 RLU	3,609,390 RLU	1,400,780 RLU	0.0804	550,291 RLU	0.527	22,671 RLU	851,342 RLU	74,704 RLU
B5	2,094,150 RLU	110,050 RLU	14.7	1,528,708 RLU	20.9	523,610 RLU	2.78	439,625 RLU	602	40,925 RLU	6,850,630 RLU	4,630,740 RLU	0.107	2,363,790 RLU	0.444	369,822 RLU	688,326 RLU	106,195 RLU
B6	753,523 RLU	16,392 RLU	7.16	793,473 RLU	116	174,991 RLU	9.12	378,264 RLU	1210	21,620 RLU	828,634 RLU	377,642 RLU	0.0613	1,244,361 RLU	0.373	144,242 RLU	796,344 RLU	173,238 RLU
